This data set can be described thus: soluble fraction after stress (log2 fold change); higher = more stays soluble; pooled small domains, quantitative proteomics. The note with it: stress: pH 4. In a few lines: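 After pH 4 stress, pooled custom libraries of small protein domains were quantified with high-throughput quantitative proteomics. Aggregation propensity is taken from the fold change in each domain's soluble amount following the acid stress. The scale is log2, where higher values mean more stayed soluble.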
As for “HMKKRDAEIMLQREFKLTEAIAMVRDRDIQELLPIALYFKVNINQPTAEIRYNLLNIAKSKTQEFIEAFD”, the “soluble fraction (log2)” value is -1.03.

For the sequence “HMKKRDANSQGTRLILFYMLQRLHTEYKLQGFVTYNQRRSFREIYDAYHALGGNGFGTAMWEEVKELDLK”, the “soluble fraction (log2)” value is -0.0682. Then “HMKKTAAKVLGESEGKPVTVQSGRYGPYVQLGSIRATLPKDLEQDDVTLDRALELISAKAERAGK”, with 0.0406; and “HMKKTDFNVENYDIEELAAILNFKYVPLNQGLIRDRIKDMKQRFKNKPEYIKFFTDVEIKLVNNLNLFN”, with -1.01; and “HMKKTFSKSSVMEAIFRDIPNITIPNAHEVYTLIKNISVMNKRKSITSEDIEKAYDALGLTP”, with 0.145.

On to “HMKKTPLSELTNRAVELFIETVFMERNYSVSSQRQFISALKIFTVFYPQTKIHNLSLERLQSSFDKLLN”, for which the “soluble fraction (log2)” value is -0.564. Then “HMKKTTEFAVTPEFQQRLEASPELKAAFQALTPGRQRAHLLFFAAPKQAQTRQARIEKSLPQIMAGKGLN”, with -0.0768; and “HMKKTVTDSVELLTFLKDIFTNTSTNKLRKMLTTGRVTVNNIVIHKAKHILVQNDVVEIGDK”, with -0.0253; and “HMKKVIEFKDVSFAFEKKPILQDFNLLVQNKDRIGIVGDNGVGKSTLLNLIAERLQPQSGQVII”, with 0.0777.

On to “HMKKVSVKPILELRAAGISMRKIETLMHVSRHTISAIYKAADAYSISWDNVKDFDEDKIYEMLFPPTP”, for which the “soluble fraction (log2)” value is not below 0.43.

With “HMKKYEIIFNDLKQSIVNGKYSNEERLPPEETLAKKYQTSRVPVQQALNALVGIGMVKRIAGSGTYVTY”, the “soluble fraction (log2)” value is -0.212. As for “HMKKYFPPKSRFNPNKYLLKDWMALGLSEKQSQSILNFIQRGIYSNSALEKIYVMPEEVFTLIKDSTYYEE”, the figure is -1.26; as for “HMKKYIEIYNYYKQLIESEQLKSGDKMPSVRKATKIFNVSKTTVQNAYFDLQADGYIIAAPKSGYYVTEM”, -0.7; as for “HMKKYLNIYNIIVNKIESKEYQSNDKLPSEKELMDQYNVSRDTVRKSLNMLEQNGYIQKTKGKGSFVLDIN”, 0.409. As for “HMKLEEITIIVPSLRLDNFVSDLARTSRSKAVQIIDSERVFINGQNETKASKQVKLGDVITSA”, the figure is -0.767. Then “HMKLHPRDQERTRAISARGERLYAVTVGDLRRRIGEMLEWFGRQIESQEPMRVAKAARRITDFFDQVEAFT”, with -2.15. “HMKLIRLGKAAGELNVGMSTLAEFLQSKGHSVDPNPNTKLTPEQYALLRMEFAADQTLKKLTKQP”: the “soluble fraction (log2)” value is -0.117. Turning to “HMKLKHANGNHPLTQQEKQNMIEEAAKHYGDYMTALGFDWKQDPNSSDTPMRVAKAFVNDLAEGVY”, the “soluble fraction (log2)” value is -0.348. Then “HMKLLLSANISKLRKKYSMTQEQLAEALGVTFASVSKWERGVATPELKLIAEMADMFEVSIDALIGYEFRN”, with -1.41. Then “HMKLPIEKESYRIIWDLEEESFRIRLKISENSPQEEKNILINQAIEDIENITGEPIDKSPYYVLYE”, with -1.04; and “HMKLPNSFGSIQKLSGNRRKPYRVVKTIGWDENGKQIRKTLGYYETRAKALQELALFNEKPYD”, with 0.22; and “HMKLTALWTANPKISAPIYSEPSTQSKTLGRIYQGASVKVYSFDPEWAYINSSGVVGYVLRRHLE”, with 0.326.

For “HMKLTINIDAAHDGKTIKQLFAEKGYSLELIKKFKYDGAIEVNGERKTVRWVLREGDLLVLEAN”, the “soluble fraction (log2)” value is -0.683. As for “HMKLTNIQYETLKVVVESRAKIDEEEGITIKLEDIKKYIDQAISFTGLVGDDEDYKKLFADMEYRFKIQ”, the figure is -0.925; as for “HMKLVAAGYHQNRLLVLLGIQAEELQAKRLLASFDRFRGREATPKPPIHDSARRWLRDTYHHVMNQVPVEL”, -0.432; as for “HMKMHKIIKERRLALNFTQEQVAKYLGVTTPAVNKWEKGISYPDISLLPALARLLDTDLNTLLSF”, -1.26.

With “HMKMLPAEVLTHPAVVALIERGAPTGSITPEEVRQASEDAAVEPRHLKALLAHLSALGISVQIP”, the “soluble fraction (log2)” value was -0.266. As for “HMKMLSIQRREAIRALLLEKESITIAEVMEKFQISVETARRDFDALADEGFLNKVYGGATLKK”, the figure is -1.24; as for “HMKMPNGYGSITKLSGKRRKPWRVRKTAGWELDAKTQKLKQTYINIGYYETRADAMSALVSYNEDP”, -0.151; as for “HMKMQPVISQGVLYINNVTDVRTIEVFDISGRIVADAAASTTVNIAHLNEGPYIVKVTTVNGIESIKILNK”, -0.889. In the case of “HMKNAMTDIYLEEIKKILTKNEFLVYTLRELNNFSVQFITDNYDLSEKTIYNSVYRAKKKIDRHFT”, the “soluble fraction (log2)” value is -0.696. Then “HMKNDKLLIFMELKGISRTQLSKSTGIPASTLGRIINGDVQKIKAVYMEAIANALDTSIHTIFDV”, with -0.352; and “HMKNDNIHMMASKINGIALEVGVLTPGMHPKNDLSEGEVGYIVTNLKTTREAKVGDTVTLAKKPAATPLPG”, with 0.187.

For “HMKNETFAITSEDAGKRLDVWLTNILGDYSRSYVERLVEQGNVTVGGKTVKAGYKLKAGDSVQVSIPGPK”, the “soluble fraction (log2)” value amounted to 0.0982. Then “HMKNISSEEDREKALSLGITQEFIDNKGRYFITVPNKPSNFKEQALNIQKEISEQIDTVINKRFEF”, with -0.263.

Turning to “HMKNLDILTPKEIEVLNLVAKGYSNSKISKELDIAEVTVKKHIGSMFQKLDVKDRLSLALIL”, the “soluble fraction (log2)” value was -0.52.

As for “HMKNLKPSTEVILKELVKRYPDQTEFRKQQIVDVGQSFGYKGKDYGPIFDADNRVKIGTYDLAGLIVPLQR”, the “soluble fraction (log2)” value came to 0.0835. As for “HMKNLNVIDLSALRTLELKESSDWTLIQKRFKLLVKKYHPDMNAGSKQYEEKLKKITLAYTHLKKLF”, the figure is -0.715; as for “HMKNQQLFNIGDRFQVDGVAYRMEKLFPENGTVEVYNLGVGRHKTMSFEEILALWNSGKLLFEI”, -0.945; as for “HMKNSIKLDNFVGMSYDEVISNKEYDFNFVSAFEKTSDYEAGTIIGQTPAAEERVMVGTTVTLTVAQP”, 0.158.

In the case of “HMKNTADRVYENLFHMLVSGDYAPGDRIPSEHELKERFNVSRNTIRAALNRMNALGIIETRQGDGTYLKG”, the “soluble fraction (log2)” value was -0.147. With “HMKNTFGLTEREMEVLALIVDGLSNPEIAEKLFITRATAKAHVHSILQKLYVDDRTQAAVTAMREGL”, the “soluble fraction (log2)” value is -1.14.

For “HMKNTIPVPHIIGLSEQEARETLERAGLQLNVIKTEPNTKYESGQVTDTNPNEGIKVPKGTIVNVVLADS”, the “soluble fraction (log2)” value is -0.0342. On to “HMKNTLDAYIRYLSNFLSRNNYPEAEDLSFINARADQAYEVFLEARRGGVDVSTAEELAMIALMQGY”, for which the “soluble fraction (log2)” value was -1.34. In the case of “HMKNVEEMILGKLKRKVSENLENASFEEIILVDAEKSVYKGIIKANYIEYYFRVNLSTGEVLSWKLK”, the “soluble fraction (log2)” value was -0.755. For the sequence “HMKPAFTPYVVKVTADVLNVRSGPGTNYGITTKVKKGEAYTIVEEKNGWGKLKSGAGWISLEYTVK”, the “soluble fraction (log2)” value was -0.0552. “HMKPALFSADELNRLYRYGLSLTGERDRAYDLLQTALEKYLRQSQAPANAMRYVRKIMHNQFIDDYR”: the “soluble fraction (log2)” value was -0.0906.

As for “HMKPDWLSDGRLIPDEVMSHLRKIAVHAVEEMGYSPEDVIKILGLSRNTIYDWLKRFREHGYEGLDTKK”, the “soluble fraction (log2)” value was -0.738. For “HMKPLAQQVNDYLAATRTSIATLANEIPGYSRPTISRYLAGKYDGDITTIEKLLAEWLAQRTG”, the “soluble fraction (log2)” value is -0.581.

For the sequence “HMKPNEYVSGETFPYLGKNYRLKVLHGSENSVRLKGGYFITTISNRDSQLSTVKSLLEDWYQTHADK”, the “soluble fraction (log2)” value was -0.163. As for “HMKPPTIELSYSEFIELVERGKVSKVIFSSDNYTLKGETVNGENFETVRPPFLEDNLSEILTIHKVPVSSE”, the figure is -0.785; as for “HMKPSKTVYTTANLNLRNGASMSAAVYTSVSRGTALATTGRTTSGWTQITHRGRTLWASSKYLTTTTPP”, 0.155.

On to “HMKPSNRSYPTALRMEVIGIIRERYADFGPTLAGEKLAELHGIHLGRETIRQWMMAAGLWKDRR”, for which the “soluble fraction (log2)” value is -0.759. As for “HMKPTVKVPNVVNLSLRNAQIQLQNYGLEVGSISYESSRFKNAVLRQSISEGSVVEKGTTINLVISDGL”, the “soluble fraction (log2)” value amounted to 0.178.

In the case of “HMKPVPPLNGTSLRDLALGYAGRYATTAARLKHYLQRKLRERGWGGEDEPDLDGLVARLVELGYVNDEVF”, the “soluble fraction (log2)” value was -0.723.

Regarding “HMKQAINFSDLNSLEEGLGIAIRQKWNEVSINDVPEDKIELVEDWINNNRGKYKGINISIGSTY”, the “soluble fraction (log2)” value is 0.0722.

Turning to “HMKQAVESAEAIFEEIARIKKLSLVKSEAEEIARKTGLQKFTIASQLLKNQHAYEMDESEIASLWDKKI”, the “soluble fraction (log2)” value was -0.594. In the case of “HMKQDFVYNGFVEAKGDDLMVQINYKGETYYVTEGESFGGFTVKSANKDKVVLSGQGGAETVLEFR”, the “soluble fraction (log2)” value is -0.536. Then “HMKQENRLKILRKEKGLTQTKLANEIGVSKRTIIAWENDERQIKPDKAQQLADYFGVKEGYLLGYTNN”, with -0.0458; and “HMKQESSEDLLNEVIDKVIDSNPDEKNRLLDGELKLVSFFMGQVMKETKGKANPGVINGLIKKKFNI”, with -0.748; and “HMKQISNTDELEAMIQKIIEDNSQQVEKFRSGNEKLFGWFVGQVMKNTQGAANPKVVNEILKKSLK”, with 0.181.

On to “HMKQISNTDELESMAKNIIQENPDQVSKFKNGNEKLFGWFVGQMMKSTGGTANPKVVNEILKNLLN”, for which the “soluble fraction (log2)” value amounted to 0.162.

Consider “HMKQLIGYSVIDIKMGKLGEISFVNSKTAQALIHVSKDGKGFYFPWHKQFVKNIDAEKGIMEVEIPKEFLD”, for which the “soluble fraction (log2)” value was -0.85. Then “HMKQLNKRQNDILSFAEKQGYVSVENLAKLFSVTQQTIRRDINYLSDNELLVRTHGGAYYSS”, with -0.0112; and “HMKQNRNLPVQIINNGKIIESVMTEFNLDIDWVYSEAKRLGYKNIKDIFYAGINRDGQFFIVPLF”, with -1.35.

In the case of “HMKQNVEAVIKERAIEKARAQVKAVSTHMALEAQSLSKEQLEFEIERIAAQIIDKMPSDFWND”, the “soluble fraction (log2)” value was -0.819. As for “HMKQPNFTVIETKILELLFQKDLSSREMQEILKISKDNLIFALQNLLEQEKIVLQTSNTYTVN”, the figure is -2.02. For the sequence “HMKQPVPDEIYFKRLANATEALGRYPRASERKKFGLNMSKRRYPTLTDFINKAIELGYVEDFR”, the “soluble fraction (log2)” value came out at 0.22. “HMKQQAYEQGKAAYQSGDWLRAVTQLGQVKEAGEKNGEVDHLLGNAYMKLGQFESAAYAYNSALEDVA”: the “soluble fraction (log2)” value was determined as 0.123.

The record behind these values is the domain aggregation screens of Martell et al. (2025).
